Measured values published in patent US20250074997A1 (PERSONGEN BIOTHERAPEUTICS SUZHOU, published 2025).

B1: phage mono clone 3-G07 (VHH)
VHH: RLQLVESGGGLVQPGGSLRLSCAVSGKALDYYSIGWFRQAPRKQREGVSCISSSGGSTNYADSVKGRFTISRDNAKDTVYLQMNSLKPEDTADYYCAVVSTVLCGLGIYEYDYWGQGTLVTVSS
notes: the phage coat fusion part is not described
B2: phage mono clone 1-B4 (VHH)
VHH: QVQLVESGGGLVQPGGSLRLSCAASGFTLDYYAIGWFRQAPGKEREGVSCISSTGGSTNYADSVKGRFTISRDNAKNTVYLQMNSLKPEDTAVYYCAADTHYLTVCYDRLGFDYWGQGTQVTVSS
notes: as for B1
B3: phage mono clone 1-G1 (VHH)
VHH: QVQLVESGGGLVQPGGSLRLSCAASGNSLRRYAIGWFRQAPGKEREGVVCISTVGGSSYYVDSVKGRFTISEDNVKNTAYLQMNSLEPEDTAVYYCAAANRLYCPAYGSAGYDYWGQGTQVTVSS
notes: as for B1
B4: phage mono clone 1-H2 (VHH)
VHH: QVQLVESGGGLVQPGGSLRLSCAASGSTLDYYAIAWFRQAPGKGREGVSCISSSGGRTNYADSVKGRFTVSRDNVKNTVYLQMNSLKPEDTAVYNCAAGGDLSCYGTPTSIWQYDLWGQGTQVTVAS
notes: as for B1
B5: phage mono clone 1-G2 (VHH)
VHH: QSQLAESGGGLVQPGGSLRLSCVASRFSLDAYAIAWFRQAPGKEREGVSCISSIGGRTNYADPVKGRFTISRDNAKNTAYLEMNSLQPEDTAVYYCAAVQRLFGPCLLSGGMDYWGKGTPVTVSS
notes: as for B1
B6: phage mono clone 3-E04 (VHH)
VHH: QLRLVESGGGLVQPGGSLRLSCAASGFTLDYYDIGWFRQAPGKEREGVSCIGRISGDTDYAESVKGRFTASRDNAKNTVYLQMNSLKPEDTAVYYCAAERRFFGGGCRRSVDNMDSWGKGTLVTVSS
notes: as for B1
B7: phage mono clone 1-F9 (VHH)
VHH: QSLLVESGGGLVQPGGSLRLSCAASGFSLDYYAIGWFRQAPGKEREEVSCISSGGGSTNYADSVKGRFTISRDNAKNTVYLQMNSLKPEDTAVYYCAAKRNFMLYLVQCPYEYDYWGQGTQVTVSS
notes: the phage coat fusion part is not described; also called 1-F09
B8: phage mono clone 1-F10 (VHH)
VHH: QVQLVESGGGLVQPGGSLRLSCAASGSILSIRAVGWYRQAPGKQRELVALITSDGTTHYALSVKGRFTISRDNAKTTVYLQMNSLKPEDTAVYYCNREDYARRYWGQGTQVTVSS
notes: as for B1
B9: phage mono clone 3-E06 (VHH)
VHH: EVQLVESGGGLVQAGGSLTLSCVASASGSILRLNAMGWYRQAPAKQRELVALITRDGSTNYPDSVKGRFTISRDNAKNTVYLQMSSLSPEDTAVYYCYVQNHYSNYWGQGTQVTVSS
notes: as for B1
B10: phage mono clone 1-H8 (VHH)
VHH: QRQLVESGGGLVQPGGSLRLSCAVSEFTLDYYAIGWFRQAPGKEREGVSCISSSGGSTVYADSVKGRFTISADNAKNTVYLQMNSLKPEDTAVYYCAAGSLLLFRLCVSRLYEYDYWGQGTQVTVSS
notes: as for B1
B11: phage mono clone 3-E09 (VHH)
VHH: AVQLVDSGGGLVQPGGSLRLSCAASGFTFSSYAMGWARQVPGKGLEWVSIIYRDGNTYYTDSVKGRFTISRDNAKNTVYLQMNSLKPEDTAVYYCAPVETVAARRRDYWGQGTQVNVSS
notes: as for B1
B12: phage mono clone 3-E10 (VHH)
VHH: B11 VHH
notes: as for B1
B13: phage mono clone 3-H02 (VHH)
VHH: QLTLVESGGGLVQPGGSLRLSCAASEFTLDYYAIGWFRQAPGKEREGVSCISSSDGSTYYADSVKGRFTISRDNAKNTVYLQMNSLKPEDTAVYYCAIGGLLLLRLWERGNYEFDYWGQGTQVTVSS
notes: as for B1
B14: phage mono clone 1-F1 (VHH)
VHH: EVQLAESGGGLVQPGGSLRLSCAASGFTFSSYTMSWVRQAPGKGLEWVSAIDSDGGVTSYADSVKGRFTISRDNAKNTLYLQMNSLKPEDTAVYYCANGGYCSGYGCYPRLLSQGTLVTVSS
notes: as for B1
B15: phage mono clone 3-E03 (VHH)
VHH: AVQLVDSGGGLVQAGGSLRLSCAASGIRLSSNAMAWYRQAPGKQRGLVALITSDGTTNYVDSVKGRFTISRDNAKNTVYLQMNSLKPEDTAVYYCKREPYLSTRGYWGQGTQVTVSS
notes: as for B1
B16: pcDNA3.4-SDAB20-7-26-2-3-E04-hFC (Fc fusion)
chain: B6 VHH
notes: Llama VHH fused in tandem with human IgG1 Fc, expressed in 293 cells, purified on protein A; not shown: human IgG1 Fc from vector pcDNA3.4-hIgG1-Fc2
B17: pcDNA3.4-SDAB20-7-26-2-1-F9-hFC (Fc fusion)
chain: B7 VHH
notes: also called 1-F09; not shown: human IgG1 Fc from vector pcDNA3.4-hIgG1-Fc2
B18: pcDNA3.4-SDAB20-7-26-2-3-H02-hFC (Fc fusion)
chain: B13 VHH
notes: as for B16

These binders were tested against T1, UPAR-His recombinant protein (UniProt Q03405 23-303) (assay: phage ELISA, plate coated with UPAR-His, HRP-anti-M13).
T1 construct: range 23-303; Expressed in 293 cells, purified on Ni-NTA; Biotinylated in the uPA ELISA; also called UPAR-His antigen; biotinUPAR-His; not shown: C-terminal His tag
T1 sequence (Q03405 23-303 limits assumed): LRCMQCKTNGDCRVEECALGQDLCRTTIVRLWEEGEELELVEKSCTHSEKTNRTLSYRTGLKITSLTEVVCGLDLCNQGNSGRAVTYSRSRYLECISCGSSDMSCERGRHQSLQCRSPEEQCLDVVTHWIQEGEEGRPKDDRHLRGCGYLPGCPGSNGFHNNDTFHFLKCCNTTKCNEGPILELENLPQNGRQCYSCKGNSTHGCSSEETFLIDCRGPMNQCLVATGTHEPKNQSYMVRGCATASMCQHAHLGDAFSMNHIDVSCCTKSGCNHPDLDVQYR
With B1 the S/N ratio was greater than 5.
In the case of B2, the S/N ratio is reported as greater than 5.
For B3, the S/N ratio was greater than 5.
B4 was tested, and the S/N ratio was greater than 5.
B5 was tested, and the S/N ratio was greater than 5.
Work on B6 yielded a S/N ratio greater than 5.
B7 was tested, and the S/N ratio was greater than 5.
In the case of B8, the S/N ratio is reported as greater than 5.
In the case of B9, the S/N ratio is reported as greater than 5.
B10 gave a S/N ratio greater than 5.
B11 was tested, and the S/N ratio was greater than 5.
For B12, the S/N ratio was greater than 5.
In the case of B13, the S/N ratio is reported as greater than 5.
Work on B14 yielded a S/N ratio greater than 5.
Binder B15 has a S/N ratio greater than 5.

What follows are binders tested against T1, UPAR-His recombinant protein (assay: SPR (BiaCore T200), UPAR recombinant protein immobilised on CM5 chip, antibody as mobile phase).
Work on B16 yielded a Kd of 22.3 nM, a koff of 0.00139 s⁻¹ and a kon of 62700 M⁻¹ s⁻¹.
In the case of B17, the Kd is reported as 1.49 nM, the koff is reported as 0.000101 s⁻¹ and the kon is reported as 67600 M⁻¹ s⁻¹.
Work on B18 yielded a Kd of 1.31 nM, a koff of 0.000173 s⁻¹ and a kon of 132000 M⁻¹ s⁻¹.
